According to the supplement of paper PMC9170038:

Tested on: MS2 coat protein
Assay: apparent KD of MS2 coat protein; higher = weaker reporter binding
Settings: Eterna round: R107
Method in brief: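 Designed RNA switches were transcribed on-chip from Illumina sequencing clusters. They were then titrated with SNAP-549-labelled MS2 coat protein (twofold steps, 0.7 or 1.5 nM to 3 µM; 0.8–1.5 h to 10–20 min per step) in 100 mM Tris-HCl pH 7.5, 80 mM KCl, 4 mM MgCl2, without or with constant ligand. Apparent KD is the per-design median of normalised cluster binding-curve fits.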

[1] = input ligand: theophylline 20 uM
[2] = input ligand: theophylline 2 mM
[3] = input ligand: tryptophan 2.4 mM

Row | Sequence | apparent KD of MS2 coat protein (input ligand: arginine 13.2 mM) | apparent KD of MS2 coat protein (input ligand: none) | apparent KD of MS2 coat protein [1] | apparent KD of MS2 coat protein [2] | apparent KD of MS2 coat protein [3]
1 | AAGUGGCACGGAAGGAGCGAGUUUACCUAGAUAACAUGAGGAUCACCCAUGUAUAAUGGGACUCAGGUAGGUCGCCGUUGUCACU [#29 Same State - Arginine B] | 24.9 nM | 34.8 nM | 51 nM | 32.8 nM | 30.7 nM
2 | GUACAUGAGGAUCACCCAUGUAUAGUUGAAGGAGCGACCAGAGGGUCAGGUAGGUCGCAGCACAUGAGGUAAGCCCGUGUAUGCU [#1 Exclusion - Arginine A Attempt #19 (Inspired by Pi)] | 30.7 nM | 50.6 nM | 59.1 nM | 35.1 nM | 32 nM
3 | ACACAUGACGCGGCCGCCACUGCAACAUGAGGAUCACCCAUGUCACCCAUGUAUGACAUGAGGAUCAGGACCGGGCGUGUGUGGA [Same State Tryptophan B 3] | 615 nM | 566 nM | 491 nM | 580 nM | 195 nM
4 | AUCGUACCUGAUGAUACCAGCAUGUGCUCGUAACAUGAGGAUCACCCAUGUGAUCAGUGAUGCCCUUGGCAGCAUGAUCGGUACA [Same State - Theophylline B (Freestyle 16)] | 67 nM | 66 nM | 49.2 nM | 14.1 nM | 61.2 nM
5 | ACAAGAGGUGGAAGGAGCGGGAGACAUGAGGAUCACCCAUGUGAAGUUUCGAGAGGAUCAUCCCAGGUAGGUCGCCAUGUCGAAA [ojjomullin] | 199 nM | 41.7 nM | 84.1 nM | 228 nM | 49.7 nM
6 | GCUUGGGUCGCACGGCCCUGGCGGUGCGAUACCAGCACGGUAACGUGCCCUUGGCAGCGCACAUGAGGAUCACCCAUGUGGUGCG [#1 Exclusion - Theophylline A Attempt #23 (HarryS)] | 9.42 nM | 12.6 nM | 25.6 nM | 264 nM | 12.4 nM
7 | AGAUGUAGCGGAAGGAGCGACUUGAGGAUCACCCAAGUCUCCCGUUGUGGGAGUUCCUUAGGUCAGGUAGGUCGCCGUUACGUCA [Omei Arg B SS B v3] | 31.6 nM | 145 nM | 154 nM | 310 nM | 82.8 nM
8 | AUGCAUAUCAGAAGGAGCGUCAUUAACAUGAGGAUCACCCAUGUAACAUUGAAUUCGAUGAGACAGGUAGGUCGCUGAAUAGUAA [SS-ArgB26] | 26.6 nM | 35.6 nM | 44.9 nM | 37.9 nM | 31.1 nM
9 | UUCAGCUAGUCGGCCGCCACUACAAGAGGAUCACCCUUGUAGGUCCACACUGCUUCGGCAGUGAGUAGGACCGGGACUAGCUGAG | 10.9 nM | 11.3 nM | 13.1 nM | 13.7 nM | 17.7 nM
10 | ACGUAAAGCAGAAGGAGCGUCUUAAUUCUACAUGAGGAUCACCCAUGUUUACAUUGAAUAUGACAGGUAGGUCGCUGAAGUACGA [JR_SSArginiB_Sub001] | 23.5 nM | 33.9 nM | 27.5 nM | 30.8 nM | 23.8 nM
11 | UCGCUCUGGGUGAAUUCCGGAGAUGUGGAAGGAGCGGACGAAAGUCCAGGUAGGUCGCCAUCGGACAUGAGGAUCACCCAUGUAC [Same State - Arginine A (Freestyle 22)] | 55.6 nM | 122 nM | 99.8 nM | 100 nM | 89.9 nM
12 | AUUCAUGGAAACAUGACAUAGGGAUCCGGUCGAGGACCGGUACGGCCGCCACUCGUUUGGAGGCACAUGAGGAUCACCCAUGUUA [SS Tryp A #7] | 40.7 nM |  | 118 nM | 101 nM | 
13 | AUGCCUAGUGGAAGGAGCGAGGGUCUUCUCAACAUGAGGAUCACCCAUGUUCUUUUACACCCUCAGGUAGGUCGCCAUUGGGACA [Biraanve] | 25.1 nM | 55 nM | 85.2 nM | 44.6 nM | 61.2 nM
14 | CUUGGUAGAUCCUAGCUGCCAAGAGGUGAUACCAGCAUCGAAAGAUGCCCUUGGCAGCACCAACAUGAGGAUCACCCAUGUAAUA [(MT)''-(M)'-(T')-(Theo)-(Ms2)_Design1/22_4] | 24.3 nM |  | 178 nM |  | 77.4 nM
15 | GAACAUAAGGAUAGUAUAAUAACUACAGAAGGAGCGUCAGGAAGGACAGGUAGGUCGCUGGAAGACAUGAGGAUCACCCAUGUUU [#03 Same State - Arginine A] | 20.6 nM | 21.4 nM | 28.8 nM | 21.1 nM | 17.1 nM
16 | ACGUCUCGUUUACUCGUGGGUUAGCUCGAUACCAGUAUUCAAACUUACCCUUGGCAGCGACAUGAGGAUCACCCAUGUGCGAAGA [XTheo A #23] | 17.3 nM |  | 20.5 nM |  | 17.5 nM
17 | CGAAUACGAAUUGAUACCAGCAUGUUAACAUGAGGAUCACCCAUGUUAAGGAUAACAUAAUGCCCUUGGCAGCAACGUAAAUUCG [Ab] | 16.7 nM |  | 17.7 nM |  | 14.4 nM
18 | UUUACCGACACAGAUCACUAAAACCUUGAUACCAGUCCCAGUGGCGACCCUUGGCAGCAAUAUACAUGAGGAUCACCCAUGUGCA [theeternabot_exclusion_MS2_Theo_A_1] | 13.7 nM |  |  |  | 13.8 nM
19 | AAAUAAAUACAUGAGGAUCACCCAUGUGAAGGAGCGCCCGUUAGGGCAGGUAGGUCGCACAUGAACUCCAAGCGAAAGAAAUAAU [ArgEX 16 #OpenEnded] | 23.6 nM | 18.3 nM | 23.9 nM | 22.7 nM | 16.4 nM
